Sequences and labels used below:
B1: Protein S100-G, residues 1 to 79; numbered along this chain, P02633 (parent)
chain: MSAKKSPEELKGIFEKYAAKEGDPNQLSKEELKLLLQTEFPSLLKGPSTLDELFEELDKNGDGEVSFEEFQVLVKKISQ

± gives the uncertainty stated by the source.

Variants of B1 are the subject of this data set. As to the kind of experiment: abundance fitness (aPCA) (normalised: wild type 0, dead -1); higher = more abundant; growth selection in yeast, the domain comes from the species named. To be noted: Bos taurus.
Turning to MSAKKSPEELKGIFEKYAAKEGDPNQLSKEELKLLLQTEFPSLSKGPSTLDELFEELDKNGDGEVSFEEFQVLVKKISQ, the abundance fitness was -0.047 ± 0.061. With MSAKKSPEELKGIFEKYAAKEGDPNQLSKEELKLLLQTEFPSLMKGPSTLDELFEELDKNGDGEVSFEEFQVLVKKISQ the figure was -0.059 ± 0.081; with MSAKKSPEELKGIFEKYAAKEGDPNQLSKEELKLLLQTEFPSLRKGPSTLDELFEELDKNGDGEVSFEEFQVLVKKISQ, -0.024 ± 0.068. The figure for MSAKKSPEELKGIFEKYAAKEGDPNQLSKEELKLLLQTEFPSLWKGPSTLDELFEELDKNGDGEVSFEEFQVLVKKISQ is 0.115 ± 0.092; for MSAKKSPEELKGIFEKYAAKEGDPNQLSKEELKLLLQTEFPSLIKGPSTLDELFEELDKNGDGEVSFEEFQVLVKKISQ it is 0.033 ± 0.082. For MSAKKSPEELKGIFEKYAAKEGDPNQLSKEELKLLLQTEFPSLNKGPSTLDELFEELDKNGDGEVSFEEFQVLVKKISQ, the abundance fitness stood at 0.058 ± 0.076. For the variant MSAKKSPEELKGIFEKYAAKEGDPNQLSKEELKLLLQTEFPSLTKGPSTLDELFEELDKNGDGEVSFEEFQVLVKKISQ, the abundance fitness came to 0.035 ± 0.072.

Consider MSAKKSPEELKGIFEKYAAKEGDPNQLSKEELKLLLQTEFPSLYKGPSTLDELFEELDKNGDGEVSFEEFQVLVKKISQ, for which the abundance fitness is 0.033 ± 0.074. With MSAKKSPEELKGIFEKYAAKEGDPNQLSKEELKLLLQTEFPSLPKGPSTLDELFEELDKNGDGEVSFEEFQVLVKKISQ the figure was 0.08 ± 0.075; with MSAKKSPEELKGIFEKYAAKEGDPNQLSKEELKLLLQTEFPSLHKGPSTLDELFEELDKNGDGEVSFEEFQVLVKKISQ, -0.035 ± 0.078; with MSAKKSPEELKGIFEKYAAKEGDPNQLSKEELKLLLQTEFPSLQKGPSTLDELFEELDKNGDGEVSFEEFQVLVKKISQ, -0.037 ± 0.089.

For the variant MSAKKSPEELKGIFEKYAAKEGDPNQLSKEELKLLLQTEFPSLVKGPSTLDELFEELDKNGDGEVSFEEFQVLVKKISQ, the abundance fitness came to 0.02 ± 0.069. With MSAKKSPEELKGIFEKYAAKEGDPNQLSKEELKLLLQTEFPSLLKGPDTLDELFEELDKNGDGEVSFEEFQVLVKKISQ the figure was -0.138 ± 0.086; with MSAKKSPEELKGIFEKYAAKEGDPNQLSKEELKLLLQTEFPSLLKGPATLDELFEELDKNGDGEVSFEEFQVLVKKISQ, 0 ± 0.071; with MSAKKSPEELKGIFEKYAAKEGDPNQLSKEELKLLLQTEFPSLLKGPHTLDELFEELDKNGDGEVSFEEFQVLVKKISQ, -0.023 ± 0.075.

Turning to MSAKKSPEELKGIFEKYAAKEGDPNQLSKEELKLLLQTEFPSLLKGPITLDELFEELDKNGDGEVSFEEFQVLVKKISQ, the abundance fitness turned out to be 0.005 ± 0.075.

MSAKKSPEELKGIFEKYAAKEGDPNQLSKEELKLLLQTEFPSLLKGPCTLDELFEELDKNGDGEVSFEEFQVLVKKISQ: the abundance fitness is -0.156 ± 0.08. The figure for MSAKKSPEELKGIFEKYAAKEGDPNQLSKEELKLLLQTEFPSLLKGPFTLDELFEELDKNGDGEVSFEEFQVLVKKISQ is -0.062 ± 0.072.

Consider MSAKKSPEELKGIFEKYAAKEGDPNQLSKEELKLLLQTEFPSLLKGPGTLDELFEELDKNGDGEVSFEEFQVLVKKISQ, for which the abundance fitness was -0.042 ± 0.07. The figure for MSAKKSPEELKGIFEKYAAKEGDPNQLSKEELKLLLQTEFPSLLKGPETLDELFEELDKNGDGEVSFEEFQVLVKKISQ is 0.042 ± 0.093.

Take MSAKKSPEELKGIFEKYAAKEGDPNQLSKEELKLLLQTEFPSLLKGGSTLDELFEELDKNGDGEVSFEEFQVLVKKISQ: the abundance fitness was -0.023 ± 0.1. The figure for MSAKKSPEELKGIFEKYAAKEGDPNQLSKEELKLLLQTEFPSLLKGVSTLDELFEELDKNGDGEVSFEEFQVLVKKISQ is 0.082 ± 0.084. With MSAKKSPEELKGIFEKYAAKEGDPNQLSKEELKLLLQTEFPSLLKGDSTLDELFEELDKNGDGEVSFEEFQVLVKKISQ the figure was -0.02 ± 0.12. With MSAKKSPEELKGIFEKYAAKEGDPNQLSKEELKLLLQTEFPSLLKGCSTLDELFEELDKNGDGEVSFEEFQVLVKKISQ the figure was 0.04 ± 0.11; with MSAKKSPEELKGIFEKYAAKEGDPNQLSKEELKLLLQTEFPSLLKGQSTLDELFEELDKNGDGEVSFEEFQVLVKKISQ, 0.051 ± 0.092. In the case of MSAKKSPEELKGIFEKYAAKEGDPNQLSKEELKLLLQTEFPSLLKGFSTLDELFEELDKNGDGEVSFEEFQVLVKKISQ, the abundance fitness was -0.015 ± 0.091. With MSAKKSPEELKGIFEKYAAKEGDPNQLSKEELKLLLQTEFPSLLKGLSTLDELFEELDKNGDGEVSFEEFQVLVKKISQ, the abundance fitness is -0.027 ± 0.074.

Turning to MSAKKSPEELKGIFEKYAAKEGDPNQLSKEELKLLLQTEFPSLLKGRSTLDELFEELDKNGDGEVSFEEFQVLVKKISQ, the abundance fitness is -0.05 ± 0.081. The figure for MSAKKSPEELKGIFEKYAAKEGDPNQLSKEELKLLLQTEFPSLLKGASTLDELFEELDKNGDGEVSFEEFQVLVKKISQ is 0.094 ± 0.094; for MSAKKSPEELKGIFEKYAAKEGDPNQLSKEELKLLLQTEFPSLLKGKSTLDELFEELDKNGDGEVSFEEFQVLVKKISQ it is -0.09 ± 0.089; for MSAKKSPEELKGIFEKYAAKEGDPNQLSKEELKLLLQTEFPSLLKGSSTLDELFEELDKNGDGEVSFEEFQVLVKKISQ it is 0.073 ± 0.077. Consider MSAKKSPEELKGIFEKYAAKEGDPNQLSKEELKLLLQTEFPSLLKGTSTLDELFEELDKNGDGEVSFEEFQVLVKKISQ, for which the abundance fitness was determined as 0.085 ± 0.078. With MSAKKSPEELKGIFEKYAAKEGDPNQLSKEELKLLLQTEFPSLLKGMSTLDELFEELDKNGDGEVSFEEFQVLVKKISQ the figure was -0.004 ± 0.091; with MSAKKSPEELKGIFEKYAAKEGDPNQLSKEELKLLLQTEFPSLLKGYSTLDELFEELDKNGDGEVSFEEFQVLVKKISQ, 0.042 ± 0.09.

On to MSAKKSPEELKGIFEKYAAKEGDPNQLSKEELKLLLQTEFPSLLKGWSTLDELFEELDKNGDGEVSFEEFQVLVKKISQ, for which the abundance fitness was -0.01 ± 0.12.

The record behind these values is the Human Domainome abundance scans (Beltran et al. 2025).
